Assay results reported in the NTF2 design screens of Basanta et al. (2020).

Experiment: protease stability score; higher = more stable; yeast display proteolysis, trypsin and chymotrypsin;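 further: log10 excess protease needed over predicted unfolded state with 0 meaning unfolded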

Sequence: DERDAETWTRMLEAVEYNNPEEVRKNADPNANFVYGNKTITGREQYAEEMKKEMDDMRKHVKIDDYHVEGDNIHVSAKFEWEVNGTPVRDTVSVQFVAENGKVRSVQYRFDPDSERKEDQ
- protease stability score: -0.641

Sequence: DERDAKKRIKDMIEALHTGDPDEFKRNLPPNARLEYGDKRVHGREQLAREVEKERKRFDHVEVKHIKVDNGRVHVELDLNVNGRTETRELVFNVSNGRVEEVHIRVP
- protease stability score: -0.186

Sequence: DERDANEMMRVIREGDFNKFRQMADENVSAVYGDKTVRGRETIKRIIHRIKRHVDHLKVDSLSTTGDHVTVDAVMHVNGQRVHFVMVVRVQNGHIKEVQFEVRNEEAQKRLEQVLS
- protease stability score: 1.18

Sequence: DERDATNAIESVMKAIKEGDPDQMQKNADPNARLQIGDKVYHGRETIVTLLKELAHRVDHLQIDSMHQHNGRVTVSILVQVNGQRRTVNIEAQARDGRLKNMHIDPEFWRQLER
- protease stability score: 0.781

Sequence: DERDDRQLNHLFRDLVHGDPDEADKLVDPNVQFTYGDRTYSGNDELQRLIDNWKKELHVTVKDIRVENQGDKVVIHIEMEYTHNGQPTSYKMSVRATAHNGKVKHMNMTSQS
- protease stability score: 0.103

Sequence: DERDEKRLNETAHRLVKTGDPDQWARLADKDVHVRVGDKKWEGREQLRDLLSRIVKNVDTHQVDTVTAKNGRITIRMVLNINGRNLTIWVTMVIHNGKIKEVEVRVRSEKERKKLES
- protease stability score: 0.981

Sequence: DERDHVRRLLNTWLKVVKRNDEDQARRLADPNARVEVGDKTYSGDEKVVELMHKIRQQYDSIDIHLHTVKREGDFIHAKAKMDAKVNGKQEDVTMFIWFKQHNGEWHILQVIIK
- protease stability score: 0.723

Sequence: DERDLEEVNRLVKHGNWHEFVKNADKNVRARVGDKRVHGREHFKSLAENWRRRIDHQSIKFVDVQGERAVVTMKMNVNGKTVEVMFSFVVSNGHIKEYEMRARNDDDETRLQEVRS
- protease stability score: 0.478

Sequence: DERDLHRQAEDVATAWQTGDSHQFEKLASENVRYVIGDKSYKGKEQVKDMLTEIDKQADHRRVSSMTVHGNKIVVVITVHYNGRTRRLNVVFDVHNGRVRQVDLSIG
- protease stability score: 0.701

Sequence: DERDLKEAIDNIRTNNFDELNKMADPNVKAVIGNKTIHGRETINKFLHRLSQQVDHVRIRHYHTRGDHLHVDFKVHFDGKDVKLRIVIRVNNGKITYIQIDVTSEEQLEELDEIVD
- protease stability score: 1.59

Sequence: DERDLKEALDLVKTGDFTRIARMADENVKLKVGDKDVHGREDAKRLMSQLEKQVDHYEIDDVTLEGNSASIDAHFNVNGNRIRFVVVIHVHNGKIKHFTIHVRDEEDKDKLRKDDG
- protease stability score: 0.799

Sequence: DERDLKTFLDILERNDEDKLQTMADENVELQVGDKTFHGREEFQKYVQHVRDQVDRVDVRDYRIDNGRASVRVIFDFNGKNLDVVMVFSVRNGRVKYFSIQYRDEEVKKMLEEIEG
- protease stability score: -0.172

Sequence: DERDMKAIVRAVKAFRRNNPEEVRENVDENVRIHVGDKEVHGRDQLKRDMEREVKTWRRSIRRISIDNQGDTVNVDIDQEKKHDGDPNREQNVVHFVAQNGKIKSVEQRHDG
- protease stability score: 0.748

Sequence: DERDMTKVFDALLKNDEDTVKDQLDEDVQVTVGDKKVHGREQAQETWERLLQRADHINMKSFTTRGDRAVAIVVARVNGHKLEWEYRFKASNGKVEHARIDFRDDDEERKFENALR
- protease stability score: 0.024

Sequence: DERDNKVVEEYIKALQRGDPKQARRQADPNARFQVGDTELHGMDDVARKIERETKQWRLEIHHVKVDVKGDKMTIRLDFVVEVNGHPKRMNLTVEAHAHNGKIKEMVMHVDPKQEEELKS
- protease stability score: 0.188

Sequence: DERDQELFQNFIKALQTNNPDQVMEQVDPNAEIQYGDRVVRGRHQLRREVEQEHHEMRNDIKVRSIRANNGHVEATFDVVFEINGKPVENRVSVILEMRDGRAKHIEWRIPSEVKEQLKG
- protease stability score: 0.059

Sequence: DERDQKHLAELIAKALETGDFKLAQKNVDENVRVKVGDETLHGKDNMQKWAEENHRRVDHLQLNDIKIHNGRVVINMRAVVNGKDFRLDIKIQFDNGKIHVVSIDPRVERHIKS
- protease stability score: 0.733

Sequence: DERDQNRKAEEAAHALRDGDERRISEMFDKNAHATVGDQTYTGREEIMKWVHDIKKRYDHVTLHDVKVHNGRADLDMVFNHNGKEDRIRIDIQFQGDKIKHVSVRSK
- protease stability score: 1.69

Sequence: DERDQRRRMDQARKILKNNDEEKFNRLLDENARMRVGEKVFHGRRQARTHLKRLHEHVDSIRVNHVSVHNGNVEVVVTMQHNGRYRQIRFDMQVHNGRAKEVKIDTS
- protease stability score: 0.091

Sequence: DERDQVKRAKEYLHAFNQGDPDEADKNADPNAKVDVGDHRYHGREEFDKAVKTFKDQVDHIEVKDVKAQGNHASARVTADVNGHTLDMIITVELHNGKVKSYVVKKK
- protease stability score: -0.175

Sequence: DERDRHKQVEEMINAFDDGDEETIKELMDEDVRAQIGNKRVHGQENVSRILKEFRDRADHIQVDTYHVEGDRAQIHAKVEVNGRRIKVSIHVQLENGRFKSFVIEYTDSDKLREMQS
- protease stability score: 0.909

Sequence: DERDRRVMEDFFRALEEGDPDTLRQNMDKDAKLVIGDKTYHGREEIATRIVQHIEHAHVRMRVDSIRAHNGRVEVNVTFMVNHNGRPRSDRMNVEAVIRNGKIKELHLVTEK
- protease stability score: -0.131

Sequence: DERDVHRIAEQLIKAMQTGDEKKLTDLADKDAEAQIGDKEIHGNHDFSRAMREFRERVDHIELKDIRVHNGHVSVDIVADINGVQLRFVITMEVKNGKVRQLSVEVRDPEQEKTALS
- protease stability score: 0.9

Sequence: DERDVKRVEEWVKAEHTGDKDKMKELLDENAEIQIGDRSITGRETRAEELRKRQEQMRVRFRKVDFQHRNGQARVDMDVQNDHNGKPHTHRVDANFQLHNGKVQRVKMTSHK
- protease stability score: 0.099

Sequence: DERDVKSVIDLVKTGDFDQMVRNADKDVKIRIGDKHVHGREQASEAMKKFTDQIDHYEVKSVNVNNGRVIVEAVFVVNGEKITVTVIVEAQNGRITHVEWRYRDEHDKKLLRKILG
- protease stability score: 1.47

Sequence: DEREAASVAMRAAQAFVTGDEKTFVDNVDPNARVTVGDKHLHGREHIQDHIRKLKTRVDHHEIHDYKVHGNKATMDVRVVFDGRTRDKKIFAVAHNGRVQEMRVEDG
- protease stability score: -0.299

Sequence: DEREAENARNYQENQKTNNPQKLQELVDPNVHWQVGDKSYKGRETQKKEMDNKRNHIREHIEHVEVRSHGDKVEAKYTAYADINGDPVRMRFDQVMVVHNGRLTEVNVDMSEDQKRKQES
- protease stability score: -0.46

Sequence: DEREAKKVVEDLKRGDWNKLMQLVDPNAKAVVGDKRVHGREQVQHMMQQFQDRIDHMEIRSVRVHNGRIEVDATFIFNGQSVRVIFHITVHNGRIQEIHVQATNEKVKHQLRKFLS
- protease stability score: 1.07

Sequence: DEREARDVQHRINKNDPQSHEDQVDEDVKLQIGDTTWHGREELNDVIRRVRESADHIKYERVEVDGDTVVADVVYTINGKNIKLRLVVHVKNGRIKYMNMTATNPDDLRTLNEIIQ
- protease stability score: 1.25

Sequence: DEREEAKRLWERFVRAIQHGDERRLRELLPPDVRVTVGDKEYHGRDQAVTWLQELAERVDHVSFDVRHIEVENGRLDIDAKVQMENNGRQHSFTLRIIADDHNGKFVIRSITYQ
- protease stability score: 1.84

Sequence: DEREEEKMAEDLLNAVERNNPDHAQKMVDENARVVIGDKDVHGRERMREAIKRQKEQFDRFRWTDVKVDNGRVRAQAVYERNGRTHHVDLNAVIHNGRAKSVRIEEK
- protease stability score: 0.022

Sequence: DEREHAEDYARQLDKAFRTGNPDEVMKQVDKDAHFQVGERRFHGEDEFKKWAEEVFERADHIHFRVREVTRQGDKIDVDMQVDMTTNGKRETDKVRALIDTQNGRQRVDEMTFK
- protease stability score: 0.651

Sequence: DEREKEHVEEFLRNWEEGNQDNLMRLADPNVRLQIGDHEIHGREQLAKHVDDERKQMRVSMQIKSVDAHNGRIHIQAERESQHDGNPTKESLVITFVLRNGRIQEVSYKRQQ
- protease stability score: 0.959

Sequence: DERELDNASRVATNIATGDEEKVVKLADENAKLNVGDNEVHGTEQATREVKKTQNDLRRNVESFEIDKNGNHARLEATVYQTVNGKPVRYKMSAEVHVHNGRVTKVDVQMDHRLLQRNKK
- protease stability score: -0.037

Sequence: DERELSLFHRWLEVLNDGNEENLKQNMDPNAHANIGEKEIHGMEDFARHMITKVKELRIKIDDIKSSAHNGRLTASIDQQDNDNGKPDKYTNTFRAKFSNGQIQSQKVERDG
- protease stability score: -0.31

Sequence: DEREMKQFIELMKQKQTGNEHHVREMFDPNAQIKVGDKTVHGKDNIREQAHRERKEMREDFRIESLDHDGERVVIKYEVQQNHNGRPKTYDVEAEAEVHNGHFKFVSVDNTE
- protease stability score: -0.399

Sequence: DERENKKHAEQLARVFQTGDHDQLRKMMPPDAKAQVGDKEYQGRDSVLHDIKRFLRQADSITIQSVTVQGNTLNIHIQLDINGKDFQAVIEVEMHNGKVVRIVIKES
- protease stability score: -0.044

Sequence: DERENQENVEEMNRVLQSGDEDRMKELVDPNATAVVGEKRVHGRETIKDEIRRFKDHADHITVERVTAKGNSAIIDIVYNVNGRETTIIVIANVHNGKIRHLHFQKS
- protease stability score: 0.301

Sequence: DEREQIKKVLKRLEDIFKSGDEDKARELIDPNARMEYGDKELHGREKMARFIHELRKRIDHMEISLQDFKVKGDKLVFRAHLEAEVNGRKTSMTLRVVAHVEGDKIKIKEIQIK
- protease stability score: 1.65

Sequence: DERERERQLRDIFRVIQRGDQDRWKEQADENARIHVGDTRVHGQEEARKWFKELVDRADHFSVKRIEVNGDDMILTFEVEFNGKRHTVTIDFNVQNGRIQNINVDPEAERRIRK
- protease stability score: 0.048

Sequence: DERFRRLVHSFIQALHTNNPEEIKELFDPNARMTIGDKQVHGQEDISRLIDRERKEMRLEIKTFSVEDKGDTADVKMKAVWDVNGKPNRHSYDLNFVDHNGKIRSLHARMDSQYLREVKS
- protease stability score: -0.074

Sequence: DERHAHTVVKKIIDALHTGDEDTLRHLADKDVRLQVGEKEVHGREEFAKEMSKFHKRVDHMEIKDVTNTGDHASVKYSAKFDGKTFNARADLVVHNGKLKKMHIDPERQKQMDS
- protease stability score: 0.535

Sequence: DERHEAEKFAQHWMEVWKKGNHTEISKLIDENARVEVGDQKYHGRSQVKTRARQEVERADHVDYTIRSVKVTGNRIDINAQQVFRVNGTEDDQTRKIVLRRQGDKVVVQSIQAG
- protease stability score: -0.159

Sequence: DERHIHELVKNMQTNNFEEIKKQLDENVRVVVGDTVYHGREQASKALEDMKRMADRIRYTRVDFKGNKVRIDVVMNINGHNLKMVITVVVQNGRIKELVFTARNDEVKTRLDHAIR
- protease stability score: 1.13

Sequence: DERHNKQWNKELIKIWTDGDHKKFSEMLDKDVQIQVGDKEYHGREEIVRQYKTLMDRADHFEVKRYEVKGNDITIIFTFQVNGRRDQVRVVFVIENGHVKKITMDKK
- protease stability score: 1.42

Sequence: DERIKDTVDQMWSAVKNNDPDQMNENFDPNARIEVGDKEVHGRDTLKKWQDTQNKRSNKDMESVSVKVDGDKVDIEAESKFTNNGQPHTNKMTASARLENGRFKEVHIDSRK
- protease stability score: -0.513

Sequence: DERIRKEHTKRLKAEQTGDPKSAHDMADENVRVKVGDKDLTGMDNIVKTIHEEKKDQRNQLDVHSIELHGEKVKIEMQVVIEHNGRPHKTEQYLVFRADNGKLKRMEQHDSG
- protease stability score: 0.023

Sequence: DERKAEHWLDQLAQMLRTGDESHVARLMDENVNVVIGDQRFHGSDEARKAIRQLKERIDHLEVKDMKNEGNKMVVKAVADVNGRTHHLDVQMEFKNGRITRASFDPTAIKQAEG
- protease stability score: 1.14

Sequence: DERKAEQNARDLAQALITGDPKRVMDLADENAEVQYGDKTYSGRERLDEVVRSFRRAVDHVDVDDIKEKGDHLRIKMTIQHNGQTRQVTLDIRVKNGKAEQIKFDFTDKDWYRRAIK
- protease stability score: 0.344

Sequence: DERKAVKHLNTMMRLINTGNPSEAADQADKDVKVHIGDKDVHGRERASDLIKKLRDRVDTIKVKSIEERPNHLSAKIDLEHNGRTHTVVFIIHAENGKVTSMSVKTD
- protease stability score: -0.349
